# Measured values published in paper PMC5317049, “Ex vivo^18O-labeling mass spectrometry identifies a peripheral amyloid β clearance pathway” (Molecular Neurodegeneration, 2017).
# B1: ponezumab: C-terminal (Aβ X-40) antibody ponezumab (antibody, chains of the INN, looked up, V domains shown)
# VH: QVQLVQSGAEVKKPGASVKVSCKASGYYTEAYYIHWVRQAPGQGLEWMGRIDPATGNTKYAPRLQDRVTMTRDTSTSTVYMELSSLRSEDTAVYYCASLYSLPVYWGQGTTVTVSS
# VL: DVVMTQSPLSLPVTLGQPASISCKSSQSLLYSDAKTYLNWFQQRPGQSPRRLIYQISRLDPGVPDRFSGSGSGTDFTLKISRVEAEDVGVYYCLQGTHYPVLFGQGTRLEIK
# Tests used:
# [1] = tested on: IDE; conditions: EDTA in plasma collection tubes; cited from earlier work
# [2] = molecular target: T1, Aβ1-40 (Homo sapiens, UniProt P05067); assay: Effect of antibodies on Aβ degradation in 5% serum; type: biochemical; conditions: 4 μg recombinant antibody in 1 ml PBS with 0.016 μM labeled Aβ1-40, 1 h pre-incubation, then 5% serum overnight, room temperature; IP-MALDI MS
# T1 construct: To 1 ml PBS containing isotopic labeled Aβ1-40 (0.016 μM) 4 μg of each of the recombinant antibodies; purchased Anaspec, Inc
# Description: The antibodies were expressed and purified as previously described. Each sample was spiked with serum (5%, end concentration) followed by incubation overnight at room temperature. The samples were placed in a 100 °C heating block for five minutes to disrupt potential antibody/Aβ complexes, and subsequently centrifuged for 10 min at 4 °C (31.000 x g). The supernatants were transferred to new tubes and Aβ peptides were immunoprecipitated and analyzed by mass spectrometry as described above.
# [3] = tested on: Aβ; conditions: than solanezumab; cited from earlier work
# [4] = molecular target: T2, insulin-degrading enzyme (IDE) (Homo sapiens, UniProt P14735); assay: Inhibition of IDE activity by insulin; type: biochemical; conditions: increasing insulin (0.1, 1 or 10 μM), PBS spiked with Aβ1-40 Arg13C15N, overnight, room temperature; IP-MALDI MS (Fig. 5c)
# T2 construct: purchased Sigma
# Description: […] The samples were incubated overnight at room temperature. Immunoprecipitation and mass spectrometry were conducted as described above.
# [5] = tested on: plasma Aβ; conditions: anti-amyloid treatment; 45 (solanezumab), 9, 22 (ponezumab), 7; cited from earlier work
# Excerpt: To explore this hypothesis, we tested the effect of recombinant versions of the antibodies solanezumab, ba ...
molecule,measurement,setting,value
O=C(O)CN(CCN(CC(=O)O)CC(=O)O)CC(=O)O [EDTA],effect on IDE proteolytic activity,[1],inhibit IDE proteolytic activity
crenezumab: recombinant anti-Aβ antibody crenezumab,effect on proteolytic degradation of Aβ1-40 in serum,[2],did not block the degradation
same,affinity for Aβ compared with solanezumab,[3],much lower affinity
insulin: insulin added as competing substrate to inhibit IDE-mediated proteolytic activity,inhibition of IDE-mediated proteolysis of Aβ1-40 Arg13C15N,[4],abundance of Aβ1-20 decreased with increasing insulin concentration
solanezumab: recombinant version of the mid-domain anti-Aβ antibody solanezumab,effect on proteolytic degradation of Aβ1-40 in serum,[2],effectively abrogated
same,increase of plasma Aβ concentration compared to physiological levels,[5],up to thousand-fold
B1,increase of plasma Aβ concentration compared to physiological levels,[5],up to thousand-fold
